Test results as given in the Immune Epitope Database (IEDB).
Blank lines part the entries; values can stand above or below the sequence they belong to.

What was measured:
[1] = biological target: HLA-B*58:01; assay: IEDB peptide-MHC binding, purified MHC/competitive/radioactivity; filed as Kd, often an IC50 or EC50 that approximates it; ≥ and ≤ were set here for values at or beyond the usual limits of such assays
[2] = biological target: HLA-B*57:01; assay: as above
[3] = biological target: HLA-A*24:02; assay: as above
[4] = biological target: HLA-B*27:05; assay: IEDB peptide-MHC binding, purified MHC/direct/fluorescence; filed as Kd, often an IC50 or EC50 that approximates it; ≥ and ≤ were set here for values at or beyond the usual limits of such assays
[5] = biological target: HLA-B*58:01; assay: as above
[6] = biological target: HLA-B*40:01; assay: as above
[7] = biological target: HLA-B*08:01; assay: as above
[8] = biological target: HLA-A*11:01; assay: as above
[9] = biological target: HLA-B*44:02; assay: as above
[10] = biological target: HLA-A*03:01; assay: as above
[11] = biological target: HLA-B*15:01; assay: as above
[12] = biological target: HLA-A*26:01; assay: as above
[13] = biological target: HLA-A*69:01; assay: as above
[14] = biological target: HLA-A*01:01; assay: as above
[15] = biological target: HLA-A*24:03; assay: as above
[16] = biological target: HLA-A*02:01; assay: as above
[17] = biological target: HLA-B*07:02; assay: as above
[18] = biological target: HLA-A*31:01; assay: as above
[19] = biological target: HLA-B*51:01; assay: IEDB peptide-MHC binding, purified MHC/competitive/fluorescence; filed as Kd, often an IC50 or EC50 that approximates it; ≥ and ≤ were set here for values at or beyond the usual limits of such assays; conditions: source organism: Homo sapiens
[20] = biological target: HLA-A*26:01; assay: as above; conditions: source organism: Homo sapiens
[21] = biological target: HLA-A*69:01; assay: as above; conditions: source organism: Homo sapiens
[22] = biological target: HLA-B*46:01; assay: as above; conditions: source organism: Homo sapiens
[23] = biological target: HLA-A*02:01; assay: as above; conditions: source organism: Homo sapiens
[24] = biological target: HLA-B*27:03; assay: as above; conditions: source organism: Homo sapiens
[25] = biological target: HLA-B*39:01; assay: as above; conditions: source organism: Homo sapiens
[26] = biological target: HLA-A*23:01; assay: IEDB peptide-MHC binding, purified MHC/competitive/radioactivity; filed as Kd, often an IC50 or EC50 that approximates it; ≥ and ≤ were set here for values at or beyond the usual limits of such assays; conditions: source organism: Dengue virus 1 Brazil/97-11/1997
[27] = biological target: HLA-A*26:01; assay: as above
[28] = biological target: HLA-A*01:01; assay: as above; conditions: source organism: Dengue virus 1 Brazil/97-11/1997
[29] = biological target: HLA-B*08:01; assay: as above; conditions: source organism: Dengue virus 2 Jamaica/1409/1983
[30] = biological target: HLA-B*15:01; assay: as above; conditions: source organism: Dengue virus 2 Jamaica/1409/1983
[31] = biological target: HLA-A*02:01; assay: as above
[32] = biological target: HLA-A*02:06; assay: as above
[33] = biological target: HLA-A*02:17; assay: as above
[34] = biological target: HLA-A*02:03; assay: as above
[35] = biological target: HLA-A*32:01; assay: as above
[36] = biological target: HLA-A*68:02; assay: as above
[37] = biological target: HLA-A*30:01; assay: as above; conditions: source organism: Dengue virus 2 Peru/IQT2913/1996
[38] = biological target: HLA-B*51:01; assay: as above; conditions: source organism: Dengue virus 1 Singapore/S275/1990
[39] = biological target: HLA-B*53:01; assay: as above; conditions: source organism: Dengue virus 4 Philippines/H241/1956
[40] = source organism: Dengue virus 1 Singapore/S275/1990
[41] = source organism: Salmonella enterica subsp. enterica serovar Typhimurium
[42] = source organism: Dengue virus 3 Martinique/1243/1999
[43] = source organism: Dengue virus 1 Brazil/97-11/1997
[44] = source organism: Dengue virus 2 Jamaica/1409/1983
[45] = source organism: Dengue virus 4 Philippines/H241/1956
[46] = source organism: Dengue virus 2 Thailand/NGS-C/1944
[47] = source organism: Dengue virus 2 Peru/IQT2913/1996
[48] = source organism: Dengue virus 3 Sri Lanka/1266/2000
[49] = source organism: Salmonella enterica subsp. enterica serovar Typhi

Sequence: VMASSVLLW
Kd [1, 40]: 1.28 nM
Kd [2, 40]: 6.56 nM
Kd [3, 40]: 113 nM

Sequence: NSDYMMWVG
Kd [4, 41]: ≥ 20000 nM
Kd [5, 41]: ≥ 20000 nM
Kd [6, 41]: ≥ 20000 nM
Kd [7, 41]: ≥ 20000 nM
Kd [8, 41]: ≥ 20000 nM
Kd [9, 41]: ≥ 20000 nM
Kd [10, 41]: ≥ 20000 nM
Kd [11, 41]: ≥ 20000 nM
Kd [12, 41]: ≥ 20000 nM
Kd [13, 41]: ≥ 20000 nM
Kd [14, 41]: ≥ 20000 nM
Kd [15, 41]: ≥ 20000 nM
Kd [16, 41]: ≥ 20000 nM
Kd [17, 41]: ≥ 20000 nM
Kd [18, 41]: ≥ 20000 nM

Sequence: GAVFTEENQW
Kd [1, 42]: 22.6 nM

Kd ([14]; source organism: Mus musculus): 10 nM
Kd [19]: ≥ 20000 nM
Kd [20]: ≥ 20000 nM
Kd [21]: ≥ 20000 nM
Kd [22]: ≥ 20000 nM
Kd [23]: ≥ 20000 nM
Kd [24]: ≥ 20000 nM
Kd [25]: ≥ 20000 nM
Sequence: WSTIWRQLY

Sequence: VTAKWLWGF
Kd [1, 43]: 59 nM
Kd [26]: 417 nM
Kd [27, 43]: 12800 nM
Kd [3, 43]: 241 nM
Kd [28]: 13900 nM

Sequence: LMMRTTWAL
Kd [29]: 1.32 nM
Kd [30]: 0.12 nM
Kd [31, 44]: 1.35 nM
Kd [32, 44]: 8.05 nM
Kd [33, 44]: 35.9 nM
Kd [34, 44]: 0.47 nM

Sequence: KGKRIEPSW
Kd [1, 44]: 11.2 nM
Kd [2, 44]: 13.1 nM

Sequence: IMAIGIVSI
Kd [35, 43]: 77.6 nM
Kd [31, 43]: 13.2 nM
Kd [33, 43]: 699 nM
Kd [34, 43]: 13.4 nM

Sequence: YTMCSGKFSI
Kd [36, 45]: 1.45 nM
Kd [31, 45]: 79.8 nM
Kd [33, 45]: 538 nM

Sequence: TIMAAILAYT
Kd [36, 44]: 86.8 nM
Kd [31, 44]: 33.4 nM
Kd [33, 44]: 12200 nM
Kd [34, 44]: 9.23 nM

Sequence: LYILGLFKF
Kd ([15]; source organism: Orthohantavirus hantanense): 115 nM

Sequence: SASRAWNVWE
Kd [1, 42]: 53.9 nM
Kd [2, 42]: 279 nM

Sequence: LSSKPEFCIK
Kd [1, 45]: 10600 nM

Sequence: GMIIMLIPTV
Kd [37]: 12600 nM
Kd [31, 46]: 70.9 nM
Kd [32, 47]: 94.7 nM
Kd [33, 46]: 6590 nM
Kd [34, 47]: 4.49 nM

Sequence: IGLTSRATW
Kd [1, 44]: 6.11 nM
Kd [2, 44]: 6.87 nM

Sequence: FSLGLLCISI
Kd [38]: ≥ 40800 nM
Kd [31, 40]: 7.58 nM
Kd [32, 40]: 2.6 nM
Kd [33, 40]: 942 nM

Sequence: KAAVEDEEF
Kd [1, 48]: 61.9 nM
Kd [2, 48]: 1670 nM

Sequence: VLSIVSLFPL
Kd [2, 43]: 108 nM
Kd [31, 40]: 8.47 nM
Kd [33, 40]: 8 nM

Sequence: LSSLLKNDVP
Kd [1, 43]: 819 nM
Kd [2, 43]: 7260 nM

Sequence: TLMLLALIAV
Kd [31, 40]: 7.52 nM
Kd [32, 43]: 52.7 nM
Kd [33, 40]: 9100 nM
Kd [34, 43]: 29.1 nM

Sequence: RVLNLVENW
Kd [1, 44]: 1.34 nM
Kd [2, 44]: 2.43 nM
Kd [35, 44]: 21.3 nM

Sequence: FVIDNVHTW
Kd [1, 45]: 17.7 nM
Kd [27, 45]: 54.8 nM
Kd [39]: 1.22 nM

Sequence: ILIGVIITW
Kd [1, 44]: 1530 nM
Kd [2, 44]: 352 nM
Kd [35, 44]: ≥ 23500 nM

Sequence: LTSKELMMAT
Kd [1, 44]: 1130 nM
Kd [2, 44]: ≥ 29800 nM

Sequence: VASAGISYKD
Kd [1, 45]: 3920 nM
Kd [2, 45]: 4690 nM

Sequence: TMFGGVSWMV
Kd [36, 45]: 5.34 nM
Kd [31, 45]: 4.46 nM
Kd [32, 45]: 2.25 nM
Kd [33, 45]: 338 nM
Kd [34, 45]: 65.1 nM

Sequence: PSEDEQQGH
Kd [4, 49]: ≥ 20000 nM
Kd [5, 49]: ≥ 20000 nM
Kd [6, 49]: ≥ 20000 nM
Kd [7, 49]: ≥ 20000 nM
Kd [8, 49]: ≥ 20000 nM
Kd [9, 49]: ≥ 20000 nM
Kd [10, 49]: ≥ 20000 nM
Kd [11, 49]: ≥ 20000 nM
Kd [12, 49]: ≥ 20000 nM
Kd [13, 49]: ≥ 20000 nM
Kd [14, 49]: ≥ 20000 nM
Kd [15, 49]: ≥ 20000 nM
Kd [16, 49]: ≥ 20000 nM
Kd [17, 49]: ≥ 20000 nM
Kd [18, 49]: ≥ 20000 nM

Sequence: ILAGVSLLPV
Kd [31, 48]: 4.65 nM
Kd [32, 42]: 1.59 nM
Kd [33, 48]: 1680 nM
Kd [34, 42]: 8.16 nM
